Measured values: article PMC8096265, “A functional LSD1 coregulator screen reveals a novel transcriptional regulatory cascade connecting R-loop homeostasis with epigenetic regulation” (Nucleic Acids Research, 2021)

Biological target: FITC-labelled H3.1 peptide (residues 16-34) trimethylated at K27 (UniProt P68431)
Assay: fluorescence polarisation; fluorescence anisotropy; 50 nM FITC-labelled H3.1 (16-34) peptide in 20 mM HEPES pH 7.5, 100 mM KCl, 0.1 mM DTT, 10% glycerol; DDX19A added stepwise; 23°C; fit to a simple binding equilibrium

- Kd: 82 nM
B1: GST-DDX19A (recombinant full-length DEAD-box helicase 19A) (enzyme)
chain: MATDSWALAVDEQEAAVKSMTNLQIKEEKVKADTNGIIKTSTTAEKTDEEEKEDRAAQSLLNKLIRSNLVDNTNQVEVLQRDPNSPLYSVKSFEELRLKPQLLQGVYAMGFNRPSKIQENALPMMLAEPPQNLIAQSQSGTGKTAAFVLAMLSRVEPSDRYPQCLCLSPTYELALQTGKVIEQMGKFYPELKLAYAVRGNKLERGQKISEQIVIGTPGTVLDWCSKLKFIDPKKIKVFVLDEADVMIATQGHQDQSIRIQRMLPRNCQMLLFSATFEDSVWKFAQKVVPDPNVIKLKREEETLDTIKQYYVLCSSRDEKFQALCNLYGAITIAQAMIFCHTRKTASWLAAELSKEGHQVALLSGEMMVEQRAAVIERFREGKEKVLVTTNVCARGIDVEQVSVVINFDLPVDKDGNPDNETYLHRIGRTGRFGKRGLAVNMVDSKHSMNILNRIQEHFNKKIERLDTDDLDEIEKIAN
